test system: Escherichia coli TOP10; experiment: shrunken log2 fold change of peptide-encoding DNA abundance (4.5 h post-induction vs induction); higher = less antimicrobial activity (less host growth inhibition); conditions: time post-induction: 4.5 h; library: site-saturation at positions 5, 18, 19, 20
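Further: peptides expressed intracellularly from a pBAD plasmid library in pooled LB shake-flask culture, induced with 0.3% L-arabinose, DNA abundance read by NGS, three biological replicates, DESeq2 with apeglm shrinkage.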

| Sequence | shrunken log2 fold change |
| --- | --- |
| RRIRLRPPRLPRPRPRPYGNPRP | 0.0303 |
| RRIRLRPPRLPRPRPRPWKIPRP | 0.095 |
| RRIRDRPPRLPRPRPRPEGKPRP | -0.0117 |
| RRIRWRPPRLPRPRPRPPMYPRP | -0.216 |
| RRIRWRPPRLPRPRPRPLWWPRP | 0.927 |
| RRIRCRPPRLPRPRPRPQGPPRP | 0.353 |
| RRIRDRPPRLPRPRPRPKVRPRP | 0.00434 |
| RRIRQRPPRLPRPRPRPAAWPRP | 0.245 |
| RRIRYRPPRLPRPRPRPSTDPRP | -0.011 |
| RRIRWRPPRLPRPRPRPAMPPRP | 0.446 |
| RRIRIRPPRLPRPRPRPKEYPRP | -0.728 |
| RRIRMRPPRLPRPRPRPRHSPRP | 0.0596 |
| RRIRQRPPRLPRPRPRPDHRPRP | 0.083 |
| RRIRDRPPRLPRPRPRPCGLPRP | 0.371 |
| RRIRMRPPRLPRPRPRPWESPRP | 0.109 |
| RRIRDRPPRLPRPRPRPTWHPRP | 0.376 |
| RRIRTRPPRLPRPRPRPAGMPRP | 0.0244 |
| RRIRLRPPRLPRPRPRPKLAPRP | 0.098 |
| RRIRARPPRLPRPRPRPVALPRP | 0.411 |
| RRIRSRPPRLPRPRPRPRTAPRP | 0.0119 |
| RRIRSRPPRLPRPRPRPCSSPRP | -0.134 |
| RRIRKRPPRLPRPRPRPACSPRP | 0.341 |
| RRIRYRPPRLPRPRPRPSVKPRP | -0.119 |
| RRIRTRPPRLPRPRPRPGRHPRP | 0.0235 |
| RRIRARPPRLPRPRPRPPRAPRP | 0.932 |

| Sequence | shrunken log2 fold change |
| --- | --- |
| RRIRTRPPRLPRPRPRPRCQPRP | 0.113 |
| RRIRWRPPRLPRPRPRPIVDPRP | -0.0254 |
| RRIRQRPPRLPRPRPRPIPMPRP | -0.639 |
| RRIRFRPPRLPRPRPRPWTAPRP | -0.283 |
| RRIRMRPPRLPRPRPRPFSRPRP | 0.0409 |
| RRIRERPPRLPRPRPRPMWSPRP | -0.351 |
| RRIRNRPPRLPRPRPRPYRDPRP | -0.0123 |
| RRIRDRPPRLPRPRPRPGYQPRP | -0.0782 |
| RRIRFRPPRLPRPRPRPTKRPRP | 0.269 |
| RRIRWRPPRLPRPRPRPYDTPRP | -0.495 |
| RRIRERPPRLPRPRPRPGSAPRP | 0.151 |
| RRIRLRPPRLPRPRPRPGTAPRP | 0.362 |
| RRIRCRPPRLPRPRPRPLQMPRP | -0.182 |
| RRIRHRPPRLPRPRPRPHLNPRP | -0.00458 |
| RRIRQRPPRLPRPRPRPDYCPRP | -0.163 |
| RRIRIRPPRLPRPRPRPVGFPRP | -0.182 |
| RRIRNRPPRLPRPRPRPDEQPRP | -0.0726 |
| RRIRLRPPRLPRPRPRPHTMPRP | -1.13 |
| RRIRMRPPRLPRPRPRPSNYPRP | -0.078 |
| RRIRTRPPRLPRPRPRPREEPRP | 0.368 |
| RRIRLRPPRLPRPRPRPMTDPRP | -0.189 |
| RRIRGRPPRLPRPRPRPNAYPRP | 0.426 |
| RRIRPRPPRLPRPRPRPMITPRP | -0.407 |
| RRIRYRPPRLPRPRPRPSVSPRP | -0.747 |
| RRIRTRPPRLPRPRPRPAGRPRP | 0.352 |

| Sequence | shrunken log2 fold change |
| --- | --- |
| RRIRHRPPRLPRPRPRPRDAPRP | 0.14 |
| RRIRYRPPRLPRPRPRPAKVPRP | 0.00738 |
| RRIRDRPPRLPRPRPRPCDSPRP | -0.0465 |
| RRIRTRPPRLPRPRPRPNNVPRP | -0.227 |
| RRIRSRPPRLPRPRPRPIRPPRP | -0.157 |
| RRIRQRPPRLPRPRPRPKGEPRP | -0.031 |
| RRIRMRPPRLPRPRPRPWCCPRP | 0.0172 |
| RRIRWRPPRLPRPRPRPADNPRP | 0.212 |
| RRIRWRPPRLPRPRPRPDDSPRP | -0.183 |
| RRIRYRPPRLPRPRPRPVIPPRP | -0.0128 |
| RRIRGRPPRLPRPRPRPTDLPRP | -0.109 |
| RRIRSRPPRLPRPRPRPVEFPRP | -0.928 |
| RRIRRRPPRLPRPRPRPGYFPRP | -0.209 |
| RRIRGRPPRLPRPRPRPWMNPRP | 0.106 |
| RRIRNRPPRLPRPRPRPVFMPRP | -0.181 |
| RRIRGRPPRLPRPRPRPVVHPRP | 0.254 |
| RRIRYRPPRLPRPRPRPGNCPRP | -0.152 |
| RRIRPRPPRLPRPRPRPEWMPRP | 0.0362 |
| RRIRVRPPRLPRPRPRPLSNPRP | -0.413 |
| RRIRIRPPRLPRPRPRPQMCPRP | 0.0648 |
| RRIRGRPPRLPRPRPRPSGKPRP | 0.367 |
| RRIRIRPPRLPRPRPRPMYTPRP | -0.244 |
| RRIRKRPPRLPRPRPRPVGLPRP | 0.174 |
| RRIRVRPPRLPRPRPRPCWAPRP | 0.154 |
| RRIRDRPPRLPRPRPRPWIDPRP | 0.151 |

| Sequence | shrunken log2 fold change |
| --- | --- |
| RRIRTRPPRLPRPRPRPIYHPRP | -0.191 |
| RRIRVRPPRLPRPRPRPEMWPRP | 0.0217 |
| RRIRPRPPRLPRPRPRPFKLPRP | -0.00835 |
| RRIRWRPPRLPRPRPRPVVRPRP | 0.405 |
| RRIRERPPRLPRPRPRPRSWPRP | 0.0987 |
| RRIRSRPPRLPRPRPRPMHWPRP | -0.159 |
| RRIRRRPPRLPRPRPRPCVMPRP | 0.113 |
| RRIRFRPPRLPRPRPRPWMSPRP | -0.0139 |
| RRIRKRPPRLPRPRPRPSQWPRP | 0.144 |
| RRIRNRPPRLPRPRPRPIMQPRP | -0.0584 |
| RRIRMRPPRLPRPRPRPHVTPRP | -0.441 |
| RRIRRRPPRLPRPRPRPTEFPRP | -0.191 |
| RRIRPRPPRLPRPRPRPGIDPRP | -0.0536 |
| RRIRTRPPRLPRPRPRPHTYPRP | -0.296 |
| RRIRWRPPRLPRPRPRPKYTPRP | -0.315 |
| RRIRWRPPRLPRPRPRPNGCPRP | 0.0739 |
| RRIRERPPRLPRPRPRPVQMPRP | -0.115 |
| RRIRDRPPRLPRPRPRPAFIPRP | -0.115 |
| RRIRYRPPRLPRPRPRPWRRPRP | -0.104 |
| RRIRDRPPRLPRPRPRPVALPRP | 0.816 |
| RRIRDRPPRLPRPRPRPWSIPRP | -0.105 |
| RRIRHRPPRLPRPRPRPIAIPRP | 0.0123 |
| RRIRMRPPRLPRPRPRPFVKPRP | -1.03 |
| RRIRWRPPRLPRPRPRPHWPPRP | 0.248 |
| RRIRGRPPRLPRPRPRPYSIPRP | 0.273 |

| Sequence | shrunken log2 fold change |
| --- | --- |
| RRIRGRPPRLPRPRPRPLVAPRP | 1.16 |
| RRIRHRPPRLPRPRPRPKPSPRP | 0.411 |
| RRIRIRPPRLPRPRPRPCKSPRP | -0.133 |
| RRIRYRPPRLPRPRPRPYSMPRP | -0.0134 |
| RRIRSRPPRLPRPRPRPQEPPRP | -0.284 |
| RRIRFRPPRLPRPRPRPTTRPRP | 0.177 |
| RRIRKRPPRLPRPRPRPPSMPRP | 0.669 |
| RRIRWRPPRLPRPRPRPYPKPRP | 0.11 |
| RRIRIRPPRLPRPRPRPPVRPRP | 0.172 |
| RRIRNRPPRLPRPRPRPRFEPRP | 0.108 |
| RRIRDRPPRLPRPRPRPRQVPRP | 0.262 |
| RRIRGRPPRLPRPRPRPCECPRP | -0.0257 |
| RRIRSRPPRLPRPRPRPNFQPRP | -0.089 |
| RRIRCRPPRLPRPRPRPTYAPRP | 0.125 |
| RRIRQRPPRLPRPRPRPEEKPRP | 0.00355 |
| RRIRLRPPRLPRPRPRPEDQPRP | 0.22 |
| RRIRARPPRLPRPRPRPYGGPRP | -0.221 |
| RRIRKRPPRLPRPRPRPVMDPRP | -0.0489 |
| RRIRDRPPRLPRPRPRPFSYPRP | -0.22 |
| RRIRKRPPRLPRPRPRPITMPRP | -0.122 |
| RRIRFRPPRLPRPRPRPWMPPRP | -0.25 |
| RRIRTRPPRLPRPRPRPDFDPRP | -0.375 |
| RRIRGRPPRLPRPRPRPGQPPRP | 0.462 |
| RRIRTRPPRLPRPRPRPEISPRP | 0.00497 |
| RRIRNRPPRLPRPRPRPKFNPRP | -0.569 |

Reference: the supplement of paper PMC9112550, “Optimization of the antimicrobial peptide Bac7 by deep mutational scanning” (BMC Biology, 2022)
